Measurements taken from patent US20060222645A1 (LEXICON PHARMACEUTICALS, published 2006).

T1: His-SUMO-gs2 (mouse, UniProt Q9Z1P8 49-98)
T1 construct: Translated in vitro (RTS E. coli); also called gs-2 fragment of mANGPTL4
T1 chain: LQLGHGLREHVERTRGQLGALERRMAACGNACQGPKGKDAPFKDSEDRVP

T2: His-SUMO-gs4 (mouse, UniProt Q9Z1P8 99-151)
T2 construct: Translated in vitro (RTS E. coli); also called gs4 fragment of mANGPTL4
T2 sequence: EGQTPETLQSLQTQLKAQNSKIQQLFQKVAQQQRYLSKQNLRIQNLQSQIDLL

T3: full-length human ANGPTL4 (human, UniProt Q9BY76 26-406)
T3 construct: also called hANGPTL4
T3 sequence: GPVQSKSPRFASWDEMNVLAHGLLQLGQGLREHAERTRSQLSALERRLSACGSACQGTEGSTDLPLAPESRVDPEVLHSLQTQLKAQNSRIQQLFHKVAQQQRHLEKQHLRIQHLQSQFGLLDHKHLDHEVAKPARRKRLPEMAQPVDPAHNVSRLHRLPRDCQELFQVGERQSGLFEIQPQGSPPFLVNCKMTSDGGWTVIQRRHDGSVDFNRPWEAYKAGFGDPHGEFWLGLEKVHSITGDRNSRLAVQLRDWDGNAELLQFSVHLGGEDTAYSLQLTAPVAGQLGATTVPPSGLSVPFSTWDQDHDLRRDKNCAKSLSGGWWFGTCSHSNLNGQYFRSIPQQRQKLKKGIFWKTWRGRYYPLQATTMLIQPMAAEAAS

T4: N-mANGPTL4 (mouse)
T4 construct: E. coli construct; also called portion of the amino terminal domain of mouse ANGPTL4
T4 chain: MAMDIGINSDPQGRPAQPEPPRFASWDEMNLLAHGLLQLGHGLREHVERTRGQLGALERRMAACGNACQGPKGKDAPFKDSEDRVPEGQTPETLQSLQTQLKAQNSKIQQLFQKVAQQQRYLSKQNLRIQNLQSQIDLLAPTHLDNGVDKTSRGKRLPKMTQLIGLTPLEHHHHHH

T5: N-hANGPTL4 (human)
T5 construct: E. coli construct
T5 chain: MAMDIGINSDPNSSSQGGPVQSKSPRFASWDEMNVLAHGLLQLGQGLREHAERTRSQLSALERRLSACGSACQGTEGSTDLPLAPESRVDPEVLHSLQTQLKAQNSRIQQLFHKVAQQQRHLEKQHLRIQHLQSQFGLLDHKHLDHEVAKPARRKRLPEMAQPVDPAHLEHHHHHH

T6: His-SUMO-gs1 (mouse, UniProt Q6TMA8 24-73 (rat entry))
T6 construct: Translated in vitro (RTS E. coli); also called gs-1 fragment of mANGPTL4
T6 chain: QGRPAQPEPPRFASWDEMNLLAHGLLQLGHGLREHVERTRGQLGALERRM

T7: His-SUMO-gs3 (mouse, UniProt Q9Z1P8 74-123)
T7 construct: Translated in vitro (RTS E. coli); also called gs-3 fragment of mANGPTL4
T7 chain: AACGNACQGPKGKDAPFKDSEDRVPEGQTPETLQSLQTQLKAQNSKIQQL

T8: His-SUMO-gs5 (mouse, UniProt Q9Z1P8 124-180)
T8 construct: Translated in vitro (RTS E. coli); also called gs5 fragment of mANGPTL4
T8 sequence: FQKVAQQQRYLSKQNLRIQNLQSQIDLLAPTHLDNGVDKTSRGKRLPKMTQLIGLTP

T9: bovine LPL (bovine, UniProt P11151 29-478)
T9 sequence (looked up): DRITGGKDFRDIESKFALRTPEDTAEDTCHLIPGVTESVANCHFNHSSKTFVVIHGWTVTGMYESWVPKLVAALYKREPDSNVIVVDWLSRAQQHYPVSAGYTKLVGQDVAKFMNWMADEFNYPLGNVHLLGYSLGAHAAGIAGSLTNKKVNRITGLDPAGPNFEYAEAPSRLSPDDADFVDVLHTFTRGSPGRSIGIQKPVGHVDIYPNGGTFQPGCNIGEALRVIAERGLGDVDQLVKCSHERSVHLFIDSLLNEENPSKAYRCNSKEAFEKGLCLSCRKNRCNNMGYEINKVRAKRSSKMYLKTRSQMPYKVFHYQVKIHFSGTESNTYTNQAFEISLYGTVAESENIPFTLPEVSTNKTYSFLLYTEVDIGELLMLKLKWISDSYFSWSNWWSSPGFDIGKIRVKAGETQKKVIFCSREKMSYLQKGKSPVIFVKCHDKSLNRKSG


Tests used:
His-SUMO-gs2 = molecular target: T1, His-SUMO-gs2; assay: Western blot of in vitro translated fragments
Method: (§1) The in vitro translated protein fragments were separated on four SDS-PAGE gels, along with N-mANGPTL4, and transferred to four nitrocellulose blots. The blots were then blocked for 1 to 2 hours with TBS containing 5% nonfat dried milk (TBS-NFDM). After blocking, the blots were rinsed with TBS containing 0.5% Tween-20 (TBS-Tween) four times for five minutes each rinse. The blots were then incubated in TBS-NFDM containing tester antibody (14D12, 15F2, 90B4, or anti-His) overnight at 4° C. The blots were rinsed with TBS-Tween four times for five minutes each rinse and then incubated in TBS-NFDM containing a 1:6000 dilution of HRP-coupled goat anti-mouse antibody (Southern Biotechnology Associates) for 1 hour. The blots were rinsed with TBS-Tween four times for five minutes each rinse and then developed using SuperSignal West Pico Chemiluminescent Substrate (Pierce Biotechnology) as directed by the manufacturer. Alternatively, blots can be developed using the Western Breeze™ Immunodetection Kit (Invitrogen).
(§2) Antibody 14D12 bound only to N-mANGPTL4 in that experiment. […] That result may be due to the fact that 14D12 is a weaker binder than 15F2 and 90B4. See, e.g., Example S and FIG. 33. Antibody 15F2 bound His-SUMO-gs1. […] Antibody 90B4 bound to His-SUMO-gs2 and His-SUMO-gs4.

His-SUMO-gs4 = molecular target: T2, His-SUMO-gs4; assay: Western blot of in vitro translated fragments
Method: as §1, §2

[1] = molecular target: T3, full-length human ANGPTL4; assay: hybridoma screening ELISA, coated antigen 0.25 ug/ml
N-mANGPTL4 = molecular target: T4, N-mANGPTL4; assay: ELISA, coated antigen 0.25 ug/ml, antibody 0 to 10 ug/ml
Method: (§3) Antibodies were screened for binding to mouse ANGPTL4 using ELISA. Ninety-six well Nunc Maxi-Sorp ImmunoPlates™ (Nunc #446612, Roskilde, Denmark) were coated by adding 50 μl per well of a 2.5 μg/ml solution of ANGPTL4 in coating buffer (BupH™ Carbonate-Bicarbonate Buffer, Pierce #28382, Rockford, Ill.) overnight at 4° C. Coating buffer was removed and the plate was blocked by adding 250 μl per well of blocking buffer (1% Blocker™ BSA, Pierce #37525, in PBS) for two hours at room temperature. 50 μl of hybridoma supernatant (undiluted or diluted in blocking buffer) or isolated anti-ANGPTL4 antibody (undiluted or diluted in blocking buffer) were added to the wells and incubated for at least one hour at room temperature. Wells were washed four times with PBS/Tween 20. 100 μl of diluted (1:5,000 to 1:10,000) HRP-conjugated goat anti-mouse IgG (Pierce #31446) were added to the wells and incubated for one hour at 37° C. Wells were washed six times with PBS/Tween 20. Anti-ANGPTL4 antibody was detected by adding 50 μl of TMB (tetramethyl benzidine) solution (ImmunoPure® TMB Substrate Kit, Pierce #34021) to the wells for 5 to 10 minutes. Plates were read spectrophotometrically at 450 nm using a microplate reader (Molecular Devices, Sunnyvale, Calif.).
(§4) The binding affinity of antibodies 90B4, 15F2, and 14D12 were determined for each of N-mANGPTL4 and N-hANGPTL4 by ELISA. N-hANGPTL4 was expressed and purified from bacteria as described above for N-mANGPTL4 in Example Q. A polynucleotide sequence encoding amino acids 24 to 175 of human ANGPTL4 was cloned into expression vector pET22b(+), which encodes an N-terminal pelB leader sequence and a C-terminal His tag. Following translation of the protein and removal of all but 11 amino acids of the pelB sequence, N-hANGPTL4 has the sequence shown in SEQ ID NO: 11. That sequence contains 11 amino acids from the pelB sequence, followed by amino acids 24 to 175 of human ANGPTL4 (underlined in Table 6), followed by a 2 amino acid linker and the His tag. ELISAs were performed as discussed above in Example K, except the plates were coated with 50 μl of 0.25 μg/ml of protein (N-mANGPTL4 or N-hANGPTL4) per well. Binding was measured at 0 μg/ml, 0.08 μg/ml, 0.4 μg/ml, 2 μg/ml, and 10 μg/ml antibody.

N-hANGPTL4 = molecular target: T5, N-hANGPTL4; assay: as above
Method: as §3, §4

His-SUMO-gs1 = molecular target: T6, His-SUMO-gs1; assay: Western blot of in vitro translated fragments
Method: as §1, §2

His-SUMO-gs3 = molecular target: T7, His-SUMO-gs3; assay: Western blot of in vitro translated fragments
Method: as §1, §2

His-SUMO-gs5 = molecular target: T8, His-SUMO-gs5; assay: Western blot of in vitro translated fragments
Method: as §1, §2

bovine LPL = molecular target: T9, bovine LPL; assay: cell-based or functional assay

Binder	binding result (His-SUMO-gs2)	binding result (His-SUMO-gs4)	binding result [1]	binding result (N-mANGPTL4)	binding result (N-hANGPTL4)	binding result (His-SUMO-gs1)	binding result (His-SUMO-gs3)	binding result (His-SUMO-gs5)	IC50 (concentration required for 50% inhibition) of LPL activity, release of 3H-oleic acid (bovine LPL)
monoclonal antibody 15F2 (antibody, V domains shown) VH: EVKLVESGGGLVKPGGSLKLSCAASGFAFSRYDMSWVRQTPEKRLEWVATISTDGSYTYYPDSVKGRFTISRDNARNTLYLQMGSLRSEDTALYFCVRHEQSTIVPHYPLDYWGQGTSVTVSS VL: EIQMTQSPSSMSASLGDRITITCQATQDIVKNLNWYQQKPGKPPSFLIHYATELAEGVPSRFSGSGSGSDYSLTISNLESEDFADYYCLQSYDFPYTFGGGTKLEINR				binds	binds	binds			
monoclonal antibody 14D12 (antibody, V domains shown) VH: EVKLVESGGGLVKPGGSLKLSCAASGFAFSRYDMSWVRQTPEKRLEWVATISTGGSYTYYPDSVKGRFTISRDNARNTLYLQMGSLRSEDTALYFCVRHEQSTVVPHYPLDYWGQGTSVTVSS VL: DIVMTQSPATLSVTPGDRVSLSCRASQSIGDYLHWYQQKSHESPRLLIKYASQSISGIPSRFSGSGSGSDFTLSIDSVEPEDVGVYYCQNGHSFPFTFGSGTKLEIKR	no binding	no binding		binds	binds	no binding	no binding	no binding	

Further lines, results first:

binding result (His-SUMO-gs2)	binding result (His-SUMO-gs4)	binding result [1]	binding result (N-mANGPTL4)	binding result (N-hANGPTL4)	binding result (His-SUMO-gs1)	binding result (His-SUMO-gs3)	binding result (His-SUMO-gs5)	IC50 (concentration required for 50% inhibition) of LPL activity, release of 3H-oleic acid (bovine LPL)	Binder
binds	binds	binds	binds	binds					monoclonal antibody 90B4 (antibody, V domains shown) VH: EVQLQQSGPELMKPGASVKMSCRTSGYTFTDYSIHWVKQSHGKRLEWIGYINPYNGDTYCDQNFKGKATLTFNKASSTAYMEIPRLTSDDSAVYYCTRWKTIQAPFAYWGQGTLVTVSA VL: EIQMTQSPSSMSASLGDRITITCQATQDIVKNLNWYQQKPGKPPSFLIHYATELAEGVPSRFSGSGSGSDYSLTISNLESEDFADYYCLQSYDFPYTFGGGTKLEIN
								~25 nM	full-length mouse ANGPTL4 (ligand) QGRPAQPEPPRFASWDEMNLLAHGLLQLGHGLREHVERTRGQLGALERRMAACGNACQGPKGKDAPFKDSEDRVPEGQTPETLQSLQTQLKAQNSKIQQLFQKVAQQQRYLSKQNLRIQNLQSQIDLLAPTHLDNGVDKTSRGKKLSKMTQLIGLTSNATHLHRPARDCQELFQEGERHSGLFQIQPLGSPPFLVNCEMTSDGGWTVIQRRLNGSVDFNQSWEAYKDGFGDPQGEFWLGLEKMHSITGDRGSQLAVQLQDWDGNAKLLQFPIHLGGEDTAYSLQLTEPTANELGATNVSPNGLSLPFSTWDQDHDLRGDLNCAKSLSGGWWFGTCSHSNLNGQYFHSIPRQRQERKKGIFWKTWKGRYYPLQATTLLIQPMEATAAS
